Data on two substances can be found in article PMC9943068.

One test addresses DNMT1 (Homo sapiens) (UniProt P26358). The note with it: cited from earlier work.
Test [1] deals with hUSP7 residues 561-1102 (human) (UniProt Q93009). The test is described as follows: ITC; 20 µM USP7(561-1102) in the cell titrated with 1.2 mM PAF15 at 293 K; 10 mM HEPES pH 7.5, 150 mM NaCl, 0.25 mM TCEP; one-site model.

UniProt P26358, sequence (P26358 whole entry, the tested form may be a part): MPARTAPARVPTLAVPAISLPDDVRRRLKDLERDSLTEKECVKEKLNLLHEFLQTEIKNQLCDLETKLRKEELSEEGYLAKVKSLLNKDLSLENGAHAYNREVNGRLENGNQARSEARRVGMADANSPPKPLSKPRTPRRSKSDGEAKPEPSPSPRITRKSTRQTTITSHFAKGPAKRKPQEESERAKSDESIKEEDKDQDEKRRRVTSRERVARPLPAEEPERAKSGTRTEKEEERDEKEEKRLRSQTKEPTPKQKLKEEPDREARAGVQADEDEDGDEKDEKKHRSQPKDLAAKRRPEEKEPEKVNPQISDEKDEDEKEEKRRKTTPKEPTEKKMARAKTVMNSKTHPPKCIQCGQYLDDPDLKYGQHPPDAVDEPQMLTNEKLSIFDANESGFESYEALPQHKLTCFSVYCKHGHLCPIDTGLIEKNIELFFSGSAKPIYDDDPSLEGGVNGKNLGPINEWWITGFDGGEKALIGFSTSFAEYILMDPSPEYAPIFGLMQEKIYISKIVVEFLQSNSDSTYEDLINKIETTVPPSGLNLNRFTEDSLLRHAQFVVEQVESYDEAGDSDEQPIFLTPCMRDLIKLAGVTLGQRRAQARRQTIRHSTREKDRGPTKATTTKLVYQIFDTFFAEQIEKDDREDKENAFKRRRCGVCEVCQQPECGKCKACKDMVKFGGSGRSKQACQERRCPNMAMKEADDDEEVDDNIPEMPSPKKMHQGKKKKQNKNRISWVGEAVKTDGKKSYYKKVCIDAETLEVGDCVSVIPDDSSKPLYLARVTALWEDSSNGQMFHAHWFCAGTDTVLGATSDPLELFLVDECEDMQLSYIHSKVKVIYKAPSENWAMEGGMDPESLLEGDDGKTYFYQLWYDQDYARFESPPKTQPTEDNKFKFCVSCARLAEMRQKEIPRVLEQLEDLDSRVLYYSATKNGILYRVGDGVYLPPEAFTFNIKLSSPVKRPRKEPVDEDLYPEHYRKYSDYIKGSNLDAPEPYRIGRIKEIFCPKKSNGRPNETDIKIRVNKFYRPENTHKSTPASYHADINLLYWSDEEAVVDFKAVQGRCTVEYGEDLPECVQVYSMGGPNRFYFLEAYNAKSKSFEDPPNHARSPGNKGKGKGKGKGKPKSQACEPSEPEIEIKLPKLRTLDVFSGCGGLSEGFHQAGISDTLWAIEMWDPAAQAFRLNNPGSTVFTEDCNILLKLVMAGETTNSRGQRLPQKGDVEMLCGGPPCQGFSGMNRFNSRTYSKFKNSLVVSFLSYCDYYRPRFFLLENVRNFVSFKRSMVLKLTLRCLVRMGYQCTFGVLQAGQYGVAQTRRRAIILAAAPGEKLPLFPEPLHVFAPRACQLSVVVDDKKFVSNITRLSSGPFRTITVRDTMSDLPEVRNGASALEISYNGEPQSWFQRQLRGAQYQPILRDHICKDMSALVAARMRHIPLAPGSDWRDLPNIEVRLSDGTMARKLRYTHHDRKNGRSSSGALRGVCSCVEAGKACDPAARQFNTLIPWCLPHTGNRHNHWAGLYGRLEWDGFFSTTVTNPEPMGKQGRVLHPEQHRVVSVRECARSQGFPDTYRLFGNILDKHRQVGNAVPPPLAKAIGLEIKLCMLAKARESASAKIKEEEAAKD

Consider USP7 561-1102 (from UniProt Q93009), for which the Kd with DNMT1 (Homo sapiens) is 0.6 µM.

As for “full-length hPAF15 wild-type, C-terminal FLAG tag (from UniProt Q15004 1-111) (natural protein)”, the Kd in test [1] was found to be 32.7 µM.

The term Kd denotes the concentration at which binding is half-saturated.
